The supplement of paper PMC7877785
± gives the uncertainty stated by the source.

Assay: self-splicing fitness, log relative to wild type (ln ratio); higher = more splicing; Tetrahymena group I intron in knt gene, E. coli kanamycin selection, DiMSum; sequences stand for … in CUCUCU…GGAGGGAAAAGUUAUCAGGCAUGCACCUGGUAGCUAGUCUUUAAACCAAUAGAUUGCAUCGGUUUAAAAGGCAAGACCGUCAAAUUGCGGGAAAGGGGUCAACAGCCGUUCAGUACCAAGUCUCAGGGGAAACUUUGAGAUGGCCUUGCAAAGGGUAUGGUAAUAAGCUGACGGACAUGGUCCUAACCACGCAGCCAAGUCCUAAGUCAACAGAUCUUCUGUUGAUAUGGAUGCAGUUCACAGACUAAAUGUCGGUCGGGGAAGAUGUAUUCUUCUCAUAAGAUAUAGUCGGACCUCUCCUUAAUGGGAGCUAGCGGAUGAAGUGAUGCAACACUGGAGCCGCUGGGAACUAAUUUGUAUGCGAAAGUAUAUUGAUUAGUUUUGGAGUACUCGUGGUCG
Method in brief: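 Fitness was computed with DiMSum as the error-weighted combination of replicate fold changes, kanamycin versus none, each normalised to wild type. The library randomised all eight intron nucleotides of the P1ex region, with the intron placed in the knt kanamycin-resistance gene on pET-22b(+) in E. coli BL21(DE3). Six replicate transformations were grown overnight at 37°C or 30°C on LB agar with or without 25 μg/mL kanamycin, plus 100 μg/mL carbenicillin, 50 μM IPTG and 0.2% rhamnose. Pooled colonies were amplicon-sequenced on an Illumina HiSeq 2500.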

Sequence	self-splicing fitness (ln) (30 °C)	self-splicing fitness (ln) (37 °C)
UCUUAGCAAUAUUACGCCGU	-2.05 ± 0.16	-0.32 ± 0.17
CAGUAGCAAUAUUACGGAGA	-2.32 ± 0.24	–
GCGAAGCAAUAUUACGUUCU	-1.93 ± 0.11	-0.859 ± 0.11
UAACAGCAAUAUUACGGUUC	-2.65 ± 0.069	-1.28 ± 0.08
AUGAAGCAAUAUUACGCCUA	0.118 ± 0.087	-0.0119 ± 0.14
GCUUAGCAAUAUUACGAAGU	-3.26 ± 0.21	-2.27 ± 0.21
ACUAAGCAAUAUUACGCCUA	-1.41 ± 0.13	-0.734 ± 0.13
UUUAAGCAAUAUUACGUGUA	-1.88 ± 0.12	-0.799 ± 0.12
GAUAAGCAAUAUUACGUUAA	-3.91 ± 0.43	-1.52 ± 0.17
CGUGAGCAAUAUUACGAUUG	-0.949 ± 0.09	-0.662 ± 0.13
GGACAGCAAUAUUACGCUCG	-0.123 ± 0.086	-0.0297 ± 0.11
UGCCAGCAAUAUUACGGUCU	-0.21 ± 0.059	0.456 ± 0.07
UGGCAGCAAUAUUACGACGA	-0.192 ± 0.12	-0.159 ± 0.14
GUGAAGCAAUAUUACGGCCC	-0.145 ± 0.18	–
UGAUAGCAAUAUUACGUGAU	-3.09 ± 0.11	-2.43 ± 0.17
UGGAAGCAAUAUUACGUACU	-0.516 ± 0.094	-0.023 ± 0.098
AUUGAGCAAUAUUACGGUCA	-2.13 ± 0.19	-0.756 ± 0.13
GAGUAGCAAUAUUACGAGGC	–	-2.86 ± 0.44

Sequence	self-splicing fitness (ln) (30 °C)	self-splicing fitness (ln) (37 °C)
AAGGAGCAAUAUUACGUAUC	–	-2.8 ± 0.44
AUGGAGCAAUAUUACGAGUU	-4.04 ± 0.43	-3.03 ± 0.22
UCCAAGCAAUAUUACGGUGA	-0.389 ± 0.054	0.493 ± 0.077
AUUCAGCAAUAUUACGCGAU	-3.46 ± 0.18	-3.23 ± 0.26
UGUUAGCAAUAUUACGGACG	-0.811 ± 0.15	-0.257 ± 0.17
GUCAAGCAAUAUUACGGUUU	-2.48 ± 0.075	-1.44 ± 0.077
CAACAGCAAUAUUACGAUUG	-2.22 ± 0.063	-1.42 ± 0.073
UGAGAGCAAUAUUACGAGAG	–	-1.16 ± 0.36
ACGUAGCAAUAUUACGCACU	-1.46 ± 0.18	-0.549 ± 0.23
ACAGAGCAAUAUUACGUGAC	-3.76 ± 0.24	-1.6 ± 0.17
ACCGAGCAAUAUUACGCUAG	-2.62 ± 0.22	-1.44 ± 0.21
GUUAAGCAAUAUUACGGCCG	-1.61 ± 0.2	-0.597 ± 0.37
GCCGAGCAAUAUUACGAGUA	-2.36 ± 0.11	-1.43 ± 0.086
CCCUAGCAAUAUUACGCCGU	-2.57 ± 0.25	-2.42 ± 0.39
UGUUAGCAAUAUUACGAUGU	-1.78 ± 0.12	-0.548 ± 0.13
GUUCAGCAAUAUUACGAGUU	-1.43 ± 0.088	-0.77 ± 0.086
AGCGAGCAAUAUUACGACUU	-0.736 ± 0.078	0.37 ± 0.1
